{"source": "patent US20210246191A1", "about": "(BIONTECH, published 2021)", "binders": {"B1": {"name": "MC-FN-010 (tag-free cystine-knot miniprotein) (designed binder)", "chain": "PMCTQRKNRIRLCRRDSDCTGACICRGNGYCG", "modifications": "disulfide 13-25; disulfide (positions not given here); not fully specified (bridges)"}, "B2": {"name": "MC-FN-016 (tag-free cystine-knot miniprotein) (designed binder)", "chain": "B1 chain with K7A", "modifications": "disulfide 13-25; disulfide (positions not given here); not fully specified (bridges)"}, "B3": {"name": "AF680-(MC-FN-010)3 (trimeric MC-FN-010 conjugated with Alexa Fluor 680) (designed binder)", "peptide": "B1 chain", "modifications": "ends and bridges not checked; also: trimer via oxime ligation, Alexa Fluor 680 label"}, "B4": {"name": "AF680-(MC-FN-016)3 (trimeric MC-FN-016 conjugated with Alexa Fluor 680) (designed binder)", "peptide": "B1 chain with K7A", "modifications": "ends and bridges not checked; also: trimer via oxime ligation, Alexa Fluor 680 label"}, "B5": {"name": "Trx-MC-FN-010 (thioredoxin fusion of cystine-knot miniprotein MC-FN-010) (designed binder)", "chain": "B1 chain", "modifications": "not fully specified; cysteine pairing not given here; also: fused to E. coli thioredoxin with His6-tag, S-tag and thrombin site", "notes": "also called Trx-MCopt 1.0-3; MCopt 1.0-3; not shown: E. coli thioredoxin-A, fusion partner from vector pET-32-LibEx; H6-tag, s-tag and thrombin cleavage site of pET-32-LibEx"}, "B6": {"name": "Trx-MC-FN-016 (thioredoxin fusion of cystine-knot miniprotein MC-FN-016) (designed binder)", "chain": "B1 chain with K7A", "modifications": "not fully specified (N-terminus, bridges); cysteine pairing not given here; also: N-terminal thioredoxin fusion carrier (Trx, H6-tag, S-tag, thrombin site), no letters given", "notes": "not shown: E. coli thioredoxin-A, fusion partner from vector pET-32-LibEx; H6-tag, s-tag and thrombin cleavage site of pET-32-LibEx"}, "B7": {"name": "Trx-MC-FN-018 (designed binder, not shown: large carriers; small tags and cut ends)", "chain": "B1 chain with R9A", "modifications": "disulfide 13-25, 19-31, 3-23; also: N-terminal thioredoxin fusion carrier (Trx, H6-tag, S-tag, thrombin site), no letters given", "notes": "alanine scan variant of MC-FN-010"}, "B8": {"name": "Trx-MC-FN-019 (designed binder, not shown: large carriers; small tags and cut ends)", "chain": "B1 chain with I10A", "modifications": "disulfide 13-25, 19-31, 3-23; also: N-terminal thioredoxin fusion carrier (Trx, H6-tag, S-tag, thrombin site), no letters given", "notes": "as for B7"}, "B9": {"name": "Trx-MC-FN-0110 (designed binder, not shown: large carriers; small tags and cut ends)", "chain": "B1 chain with R11A", "modifications": "disulfide 13-25, 19-31, 3-23; also: N-terminal thioredoxin fusion carrier (Trx, H6-tag, S-tag, thrombin site), no letters given", "notes": "as for B7"}, "B10": {"name": "Trx-MC-FN-0111 (designed binder, not shown: large carriers; small tags and cut ends)", "chain": "B1 chain with L12A", "modifications": "disulfide 13-25, 19-31, 3-23; also: N-terminal thioredoxin fusion carrier (Trx, H6-tag, S-tag, thrombin site), no letters given", "notes": "as for B7"}, "B11": {"name": "Trx-MC-FN-0114 (designed binder)", "peptide": "B1 chain with R26A", "modifications": "disulfide 13-25, 19-31, 3-23; also: N-terminal thioredoxin fusion carrier (Trx, H6-tag, S-tag, thrombin site), no letters given", "notes": "alanine scan variant of MC-FN-010; not shown: N-terminal carrier from vector pET-32-LibEx (E. coli thioredoxin-A, H6-tag, S-tag, thrombin site and their linkers)"}}, "key": {"[1]": {"molecular_target": "FN-67B89 (recombinant human fibronectin EDB flanked by its surrounding type III domains, C-terminal hexahistidine tag) (human) (UniProt P02751)", "assay": "SPR, biotinylated FN-67B89 on streptavidin sensor, 50-4000 nM, 1:1 Langmuir fit"}, "[2]": {"molecular_target": "FN-67B89 (recombinant human fibronectin EDB flanked by its surrounding type III domains, C-terminal hexahistidine tag) (human) (UniProt P02751)", "assay": "SPR, biotinylated FN-67B89 on streptavidin sensor, 62.5-4000 nM, 1:1 Langmuir fit"}, "[3]": {"molecular_target": "FN-67B89 (recombinant human fibronectin EDB flanked by its surrounding type III domains, C-terminal hexahistidine tag) (human) (UniProt P02751)", "assay": "SPR single cycle kinetics, biotinylated FN-67B89 on streptavidin chip, 1.25-10 nM, 1:1 Langmuir fit"}, "[4]": {"molecular_target": "FN-67B89 (recombinant human fibronectin EDB flanked by its surrounding type III domains, C-terminal hexahistidine tag) (human) (UniProt P02751)", "assay": "SPR, biotinylated FN-67B89 on streptavidin sensor, 1.25-10 nM, 1:1 Langmuir fit"}, "bovine serum albumin": {"molecular_target": "T1, bovine serum albumin (bovine, UniProt P02769 25-607)", "T1 construct": "Control protein coated in ELISA; also called BSA", "T1 sequence (P02769 25-607 limits assumed)": "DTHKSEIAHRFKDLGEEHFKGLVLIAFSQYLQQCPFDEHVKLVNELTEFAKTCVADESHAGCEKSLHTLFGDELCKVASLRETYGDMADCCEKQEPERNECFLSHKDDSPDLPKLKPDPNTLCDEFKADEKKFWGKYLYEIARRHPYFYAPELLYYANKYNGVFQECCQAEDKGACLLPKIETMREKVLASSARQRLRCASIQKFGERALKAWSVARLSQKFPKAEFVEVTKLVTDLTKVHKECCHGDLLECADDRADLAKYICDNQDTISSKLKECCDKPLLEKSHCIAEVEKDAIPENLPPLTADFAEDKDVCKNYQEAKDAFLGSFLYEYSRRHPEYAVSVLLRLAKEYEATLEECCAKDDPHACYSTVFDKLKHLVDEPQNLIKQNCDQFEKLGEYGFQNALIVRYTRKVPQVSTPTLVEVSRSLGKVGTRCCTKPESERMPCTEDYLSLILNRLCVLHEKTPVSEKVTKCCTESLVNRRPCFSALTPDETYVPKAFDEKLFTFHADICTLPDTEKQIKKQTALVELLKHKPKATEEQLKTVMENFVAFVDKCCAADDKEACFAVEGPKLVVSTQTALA", "assay": "ELISA, 200 nM Trx-miniprotein on coated protein (1 µg/well), duplicates", "method": "FIG. 5: Extended specificity analysis of Trx-cystine-knot miniprotein clones MCopt 1.0-2/-3 and MCopt 2.0-1/-2/3. […] ELISA was performed in duplicates, error bars represent standard deviation and Trx-MC-Myc-010 served as negative cystine-knot miniprotein control.\n(§1) ELISA was used as technique to analyze protein-protein interactions. Cavities of 96-well microtiter plates (Nunc MaxiSorp™, Thermo Fisher Scientific) were coated with 1 μg FN-B, bovine serum albumin (BSA, Eurobio), milk powder, streptavidin (Sigma Aldrich), T7-His-TEV-B (LD BioPharma), FN-B(8-14) (R&D Systems), lysozyme, ovalbumin (GE Healthcare Life Science), aldolase (GE Healthcare Life Science) or 0.6 μg anti-c-myc-antibody (M4439, Sigma) overnight at 4° C. The wells were washed three times with PBS-T (1×PBS with 0.1% (w/v) Tween-20), blocked with 1× Casein buffer (Sigma Aldrich) diluted in PBS for 2 h at RT and washed again as described. […] After three times of washing with PBS-T, binding of the respective variant was detected with a horseradish peroxidase (HRP)-conjugated anti-S-tag antibody (ab18589 or ab19324, Abeam). Enzymatic reaction was measured with TMB as a chromogenic substrate and stopped with 0.2 M HCl after approximately 5 min. The measurement of absorbance at 450 nm was performed using an Infinite M200 PRO Microplate Reader (Tecan)."}, "[5]": {"molecular_target": "FN-67B89 (recombinant human fibronectin EDB flanked by its surrounding type III domains, C-terminal hexahistidine tag) (human) (UniProt P02751)", "assay": "ELISA titration of Trx-miniprotein on coated protein (1 µg/well), HRP anti-S-tag antibody, duplicates [continued), panel MCopt 1.0-3]"}, "[6]": {"molecular_target": "T2, FN-B (recombinant human fibronectin EDB as a single domain, C-terminal hexahistidine tag) (human, UniProt P02751 1266-1356, Biotinylated on primary amines only for the phage screening; coated unmodified in the ELISAs)", "T2 construct": "Made in E. coli (pET-21a); Residue numbers count on isoform 7 of P02751; Biotinylated on primary amines for the phage screening; also called Fibronectin Extra Domain B; single domain FN-B", "T2 sequence (P02751 other isoform, or with tags, fused parts or gaps limits assumed)": "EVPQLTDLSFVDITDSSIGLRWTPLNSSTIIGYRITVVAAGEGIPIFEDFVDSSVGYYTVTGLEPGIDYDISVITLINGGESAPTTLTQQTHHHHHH", "assay": "ELISA titration of Trx-miniprotein on coated protein (1 µg/well), HRP anti-S-tag antibody, duplicates [continued), panel MCopt 1.0-3]", "method": "(§2) FIG. 6: Saturation-binding curves of MCopt 1.0-2/-3 and MCopt 2.0-1/-2/-3 EDB binding. […] Binding of Trx-cystine-knot miniproteins was detected with an HRP-conjugated anti-s-tag-antibody. ELISAs were performed in duplicates (single values for FN-B(8-14)).\nas §1"}, "[7]": {"molecular_target": "T3, FN-B(8-14) (R&D Systems), EDB with C-terminal domains 8-13 and 1/2 of domain 14 (UniProt P02751 1265-1908)", "T3 construct": "domain: EDB with C-terminal domains 8-13 and 1/2 of domain 14; Bought", "T3 sequence (P02751 1265-1908 limits assumed)": "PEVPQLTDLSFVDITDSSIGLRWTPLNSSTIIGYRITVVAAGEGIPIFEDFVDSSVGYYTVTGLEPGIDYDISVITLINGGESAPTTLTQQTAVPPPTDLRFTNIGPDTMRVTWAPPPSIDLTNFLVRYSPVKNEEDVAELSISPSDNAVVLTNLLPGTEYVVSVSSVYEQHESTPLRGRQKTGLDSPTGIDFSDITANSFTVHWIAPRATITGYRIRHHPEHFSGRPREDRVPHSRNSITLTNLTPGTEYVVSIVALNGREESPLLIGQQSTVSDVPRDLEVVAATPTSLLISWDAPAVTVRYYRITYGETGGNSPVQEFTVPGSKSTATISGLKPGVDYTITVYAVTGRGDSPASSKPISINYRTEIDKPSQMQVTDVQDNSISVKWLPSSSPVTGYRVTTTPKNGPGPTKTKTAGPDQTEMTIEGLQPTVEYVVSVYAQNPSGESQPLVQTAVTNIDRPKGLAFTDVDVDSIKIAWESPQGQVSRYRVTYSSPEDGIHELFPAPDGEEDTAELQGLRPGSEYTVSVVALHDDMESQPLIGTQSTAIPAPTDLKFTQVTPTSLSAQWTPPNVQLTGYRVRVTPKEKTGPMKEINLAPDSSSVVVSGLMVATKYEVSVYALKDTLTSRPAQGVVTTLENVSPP", "assay": "ELISA titration of Trx-miniprotein on coated protein (1 µg/well), HRP anti-S-tag antibody, single values [continued), panel MCopt 1.0-3]", "method": "as §2, §1"}, "[8]": {"molecular_target": "T4, FN-6789 (recombinant human fibronectin type III domains 6-9 without EDB, C-terminal hexahistidine tag) (human, UniProt P02751-1 1085-1446, limits assumed)", "T4 construct": "domain: domains 6-9 without EDB; Control protein", "T4 sequence (P02751 other isoform, or with tags, fused parts or gaps limits assumed)": "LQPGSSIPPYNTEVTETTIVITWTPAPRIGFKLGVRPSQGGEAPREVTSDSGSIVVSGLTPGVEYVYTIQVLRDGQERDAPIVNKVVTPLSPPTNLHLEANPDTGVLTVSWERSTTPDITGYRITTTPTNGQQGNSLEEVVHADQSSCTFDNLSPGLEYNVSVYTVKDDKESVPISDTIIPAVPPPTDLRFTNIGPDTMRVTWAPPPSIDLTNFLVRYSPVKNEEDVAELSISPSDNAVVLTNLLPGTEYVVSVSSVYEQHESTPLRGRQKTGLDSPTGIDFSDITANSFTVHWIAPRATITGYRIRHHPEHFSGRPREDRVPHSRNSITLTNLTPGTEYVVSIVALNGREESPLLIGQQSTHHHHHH", "assay": "ELISA, 1.56 to 50 nM Trx-miniprotein on 1 µg coated protein per well, 50 ng HRP anti-S-tag antibody, duplicates"}, "[9]": {"molecular_target": "T2, FN-B (recombinant human fibronectin EDB …)", "assay": "ELISA, Trx fusion 50 to 1.563 nM on coated FN-B, HRP anti-S-tag antibody; relative binding from apparent binding constants against parental MC-FN-010, three assays"}}, "note": "Residue numbers refer to the chain shown, from its start. Bridge positions count the residues as written; N and C are the ends. Ends that are not written are not given here.", "data": [{"binder": "B1", "values": [{"measurement": "Kd", "setting": "[1]", "result": 1580, "unit": "nM"}, {"measurement": "koff", "setting": "[1]", "result": 0.0783, "unit": "s⁻¹"}, {"measurement": "kon", "setting": "[1]", "result": 49500, "unit": "M⁻¹ s⁻¹"}]}, {"binder": "B2", "values": [{"measurement": "Kd", "setting": "[2]", "result": 1410, "unit": "nM"}, {"measurement": "koff", "setting": "[2]", "result": 0.187, "unit": "s⁻¹"}, {"measurement": "kon", "setting": "[2]", "result": 133000, "unit": "M⁻¹ s⁻¹"}]}, {"binder": "B3", "values": [{"measurement": "Kd", "setting": "[3]", "result": 0.431, "unit": "nM"}, {"measurement": "koff", "setting": "[3]", "result": 0.00347, "unit": "s⁻¹"}, {"measurement": "kon", "setting": "[3]", "result": "8.04e+06", "unit": "M⁻¹ s⁻¹"}]}, {"binder": "B4", "values": [{"measurement": "Kd", "setting": "[3]", "result": 0.902, "unit": "nM"}, {"measurement": "koff", "setting": "[3]", "result": 0.00231, "unit": "s⁻¹"}, {"measurement": "kon", "setting": "[3]", "result": "2.56e+06", "unit": "M⁻¹ s⁻¹"}]}, {"binder": "PMCTQRANRIRLCRRDSDCTGACICRGNGYCG (designed binder, ends and bridges not checked; also: trimer, DOTA on trimer, site not given here)", "note": "[DOTA-(MC-FN-016)3 (unlabeled trimeric probe)]", "values": [{"measurement": "Kd", "setting": "[4]", "result": 0.624, "unit": "nM"}, {"measurement": "koff", "setting": "[4]", "result": 0.00226, "unit": "s⁻¹"}, {"measurement": "kon", "setting": "[4]", "result": "3.73e+06", "unit": "M⁻¹ s⁻¹"}]}, {"binder": "B5", "values": [{"measurement": "binding result", "setting": "bovine serum albumin", "result": "no binding (tested: 200 nM)"}, {"measurement": "EC50 (read off the curve)", "setting": "[5]", "result": 10, "unit": "nM"}, {"measurement": "EC50 (read off the curve)", "setting": "[6]", "result": "~4", "unit": "nM"}, {"measurement": "EC50 (read off the curve)", "setting": "[7]", "result": "~10", "unit": "nM"}]}, {"binder": "B6", "values": [{"measurement": "binding result", "setting": "[8]", "result": "no binding (tested: 50 nM)"}]}, {"binder": "B7", "values": [{"measurement": "binding result", "setting": "[9]", "result": "no binding (tested: 50 nM)"}]}, {"binder": "B8", "values": [{"measurement": "binding result", "setting": "[9]", "result": "no binding (tested: 50 nM)"}]}, {"binder": "B9", "values": [{"measurement": "binding result", "setting": "[9]", "result": "no binding (tested: 50 nM)"}]}, {"binder": "B10", "values": [{"measurement": "binding result", "setting": "[9]", "result": "no binding (tested: 50 nM)"}]}, {"binder": "B11", "values": [{"measurement": "binding result", "setting": "[9]", "result": "no binding (tested: 50 nM)"}]}]}
